This passage reports normalized luminescence ratio (NLR) results from paper doi:10.1101/2022.10.27.514150.

The target in this experiment is Gluc1-ΔN(1–433). In words: split reporter.

Sequence of Gluc2-E2F4 FL (Q16254 whole entry): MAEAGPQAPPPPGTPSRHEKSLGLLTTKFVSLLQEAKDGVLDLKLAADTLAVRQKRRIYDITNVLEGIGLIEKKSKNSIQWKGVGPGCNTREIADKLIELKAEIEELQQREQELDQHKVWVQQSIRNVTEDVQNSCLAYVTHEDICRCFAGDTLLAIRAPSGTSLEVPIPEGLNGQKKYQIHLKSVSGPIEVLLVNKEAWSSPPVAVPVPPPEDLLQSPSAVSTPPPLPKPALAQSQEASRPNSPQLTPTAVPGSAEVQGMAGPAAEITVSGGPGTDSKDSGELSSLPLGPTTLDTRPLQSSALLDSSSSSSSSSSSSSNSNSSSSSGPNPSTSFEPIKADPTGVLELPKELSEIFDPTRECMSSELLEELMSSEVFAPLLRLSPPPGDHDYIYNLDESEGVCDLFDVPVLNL

“Gluc2-E2F4 FL (from UniProt Q16254 1-413) (natural protein)”: the normalized luminescence ratio (NLR) is greater than 20.
